Reference: the nanobody polyreactivity screen of Harvey et al. (2022)

Assay: yeast display, Sf9 membrane polyspecificity reagent, FACS + sequencing; frameworks hold sequencing errors
Method in brief: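 Synthetic nanobody libraries on Saccharomyces cerevisiae BJ5465 were galactose-induced for 36–48 hours, stained 1 hour at 4 °C with 10% biotinylated, detergent-solubilized Sf9 membrane reagent and enriched on streptavidin microbeads. FACS then separated cells into low and high (top ~1%) gates by anti-HA (expression) and streptavidin (reagent binding) fluorescence. Genes were colony-PCR amplified, MiSeq 2 × 250 sequenced and CDR-length filtered. A clone's polyreactivity label is that of its gate of origin.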

QVQLVESGGGIVQAGGSLRLSCAASGSTFGTYAMGWYRQAPGKEMELVAAISNSGGSTYYADSVKGRFTISRDNAKNTVYLLMNSLKQEDTAVYYCNTDGLVRNGPFYSWGQGTQVTVSS
polyreactivity (PSR sort gate): low polyreactivity

QVQLVESGGGLVQAGGSLRLSCAASARTFWAYAMGWYRQATGKEREWVAAITSSGTRTYYADSVKGRFTISRDNAKNTVYLKMNSLKPEDTAGYYCAAERIWLAHAYPTYVANDYWGQGTQVTVSS
polyreactivity (PSR sort gate): high polyreactivity

QVQLVESGGGLVQAGGSLRLSCAASGRTFTHNTMGWYRQAPGKERELVAAISRSGASTYYADSVKGRFTISRDNAKNTVYLQMNSLKPEDTAVYYCNAYSRPHFGYVVGTKSRHGYWGQGTQVTVSS
polyreactivity (PSR sort gate): high polyreactivity

QVQLVESGGGLVQAGGSLRLSCAASGRTFPYYAMGWSRQAPGKERELVAAITRGGNTNYADSVKGRFTISRDNAKNTVYLQMNSLKPEDTAVYYCAALVRAGPRRGTIYDYWGQGTQVTVSS
polyreactivity (PSR sort gate): high polyreactivity

QVQLVESGGGLVQAGGSLRLSCAASGRTFGYYTMGWYRQAPGKEWELVATIRWSGGSTYADSVKGRFTISRDNAKNTVYLQLNSLKPEDTAVYYCYVDPSYYKILFNGFYYWGQGTQVTVSS
polyreactivity (PSR sort gate): high polyreactivity

QVQLVESGGGLVQAGGSLRLSCAASGSTFSSNTMGWYRQAPGKEREMVAAITRRGGSTYYADSVKGRFTISRDNAKNTVYLQMNCLKPEDTAVYYCAARAYGGYGYWGQGTQVPVSS
polyreactivity (PSR sort gate): low polyreactivity

QVQLVESGGGLVQAGGSLRLSCAASGITFLDYAMGWYRQAPGKERELVADISTSGGSTYYADSVKGRFTISRDNAKNTVYLQMNSLKPEDTAVYYCAADTFDFWWSLGSMDYWGQGTQVTVSS
polyreactivity (PSR sort gate): high polyreactivity

QVQLVESGGGLVQAGGSLRLSCAASGFISAYYALGWSRQAPGKERELVAGITRGGNTYYADSVKGRFTISRDNAKNTVYLQMNSLKPEDTAVYYCAAEGSHNSEYWGQVTQVTVSS
polyreactivity (PSR sort gate): high polyreactivity

QVQLVESGGGLVQAGGSLRLSCAASGFIFRYYAMGWYRQAPGKERELVARISSSGGRTYYADSVKGRFTISRDNAKNTVYLQMNSLKPEDTAVYYCNTADYHGRWAFAWYGDYWGQGTQVTVSS
polyreactivity (PSR sort gate): high polyreactivity

QVQLVESGGGLLQAGGSLRLSCAASGFTIYGYGMGWYRQAPGKERELVAGITARGSSTYYADSVKGRFTISRDNAKNTVYLQMNSLKPEDTAVYYCNSVGARVASATGMEYWGQGTQVTVSS
polyreactivity (PSR sort gate): high polyreactivity

QVQLVESGGGLVQAGGSLRLSCAASGRIFGVYAMGWYRQAPGKERELVAAISEGGGSTNYADSVKGRFTISRDNAKNTVYLQMNSLKPEDTAVYYCAADRSYYGYGYWGQGTQVTVSS
polyreactivity (PSR sort gate): low polyreactivity

QVQLVESGGGLVQAGGSLRLSCAASGRTFRRYAMGWYRQAPGKEREFVAAIRYSGGITYYADSVKGRFTISRDNAKNTVYLQMNSLKPEDTAVYYCAAYGWGNRWYSRFDYWGQGTQVTVSS
polyreactivity (PSR sort gate): high polyreactivity

QVQLVESGGGLVQAGGSLRLSCASSGIIFGGNAMGWYRQAPGKERELVATISNGGSTKYADSVKGRFTISRDNAKNTVYLQMNSLKPEDTAVYYCAAQPRVGSYVRSSRGRYNHWGQGTQVTVSS
polyreactivity (PSR sort gate): high polyreactivity

QVQLVESGGGLVQAGGSLRLSCAASGRIFAYYSMGWYRQAPGKERELVAAISRSGVSTYYADSVKGRFTISRDNAKNTVYLLMNSLKPEDTAVYYCAARWRSGFTSGDFWGQGTQVTVSS
polyreactivity (PSR sort gate): low polyreactivity

QVQLVESGGGLVQAGGSLRLSCAASGRTFARNAMGWYRQAPGKERELVASINRGGRTNYADSVKGRFTISRDNAKNTVYLQMNSLKPEDTAVYYCAKYILGVGPFFSTYDYWGQGTQVTVSS
polyreactivity (PSR sort gate): high polyreactivity

QVQLVESGGGLVQAGGSLRLSCAASGSTFQYYAMGWYRQAPGKEREMVAAISASVDTTFYADSVKGRFTISRDNAKNTVYLQMNSLKPEDTAVYYCATDWPHWRKVYWFDYWGQGTQVTVSS
polyreactivity (PSR sort gate): low polyreactivity

QVQLVESGGGLVQAGGSLRLSCAASGRTFLYYTMGWYRQAPGTERELVATINYSGGRTYYADSVKGRFTISRDNANNTVYFQMNSLKPVATAVYFWAKSGRALWWYDYWGQGTQVTVSS
polyreactivity (PSR sort gate): high polyreactivity
